# Results as given in publication PMC12362812.
# Molecular target: NUP93 (nucleoporin 93) (UniProt Q8N1F7)
# Test: co-immunoprecipitation, Western blot
# Conditions: reference: wild-type β-catenin; sites S191
substance,measurement,value
β‐catenin (from UniProt P35222) β-catenin S191 mutant (S191A),binding against the reference,weaker
